Measured values published in paper PMC9440123, “Rtt105 regulates RPA function by configurationally stapling the flexible domains” (Nature Communications, 2022).
One block for each binder: values may come before it.

B2: Regulator of Ty1 Transposition 105 (Rtt105) (natural protein, S. cerevisiae, UniProt P40063 1-208, looked up)
chain: MYSNHNLNSDDCCFDWNEEKAAELQRTGVSFDRSLTPQSLRTSTRRLSEENKQQSGTMHIDTSPSVVSDIISSRRDRSQDFFGPHSSSPIAPSERQRADQRSRLESMRLTRRRDKMTKVRGGLEKMEEMIMQGEHLREMQRLKQEAQKNALPSDMAEYMEWQNNEDLEDDELLAFIEKQETYKNELEHFLNNANKNVYENNSYPNSHT
notes: Rtt105, S. cerevisiae, a 24 kDa protein; RSF-Duet1 plasmid; also called Rtt105^WT; unlabeled Rtt105

How the values were obtained:
RPA-DBD-A-Cy5 = RPA-DBD-A-Cy5 (Saccharomyces cerevisiae, UniProt P22336;P26754;P26755 1-621;1-273;1-122); assay: stopped-flow FRET; no Rtt105; kobs1 18.2, kobs2 2.7 s-1; EMSA: 25 mM Tris-Cl pH 7.5, 200 mM NaCl, 5 mM MgCl2, 5% glycerol, 0.05% Tween-20, 25 C; anisotropy/FRET: 30 mM HEPES pH 7.8, 100 mM KCl, 6% glycerol, 5 mM MgCl2, 1 mM bME, 23 C (stopped flow 25 C); settings: protein: recombinant; tags: Cy5 on DBD-A via 4AZP; copies: 1;1;1; label: 5'-Cy3
Chain of RPA-DBD-A-Cy5 (P26754 whole entry, chain 2 of 2): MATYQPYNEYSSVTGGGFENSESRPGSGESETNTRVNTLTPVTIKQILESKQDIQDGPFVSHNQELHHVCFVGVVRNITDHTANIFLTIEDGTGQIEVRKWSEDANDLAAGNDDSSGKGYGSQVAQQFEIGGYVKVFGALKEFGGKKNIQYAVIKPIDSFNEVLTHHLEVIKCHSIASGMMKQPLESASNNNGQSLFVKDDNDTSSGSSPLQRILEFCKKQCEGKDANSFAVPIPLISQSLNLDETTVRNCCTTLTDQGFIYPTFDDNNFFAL
Chain of RPA-DBD-A-Cy5 (P26755 whole entry, chain 3 of 2): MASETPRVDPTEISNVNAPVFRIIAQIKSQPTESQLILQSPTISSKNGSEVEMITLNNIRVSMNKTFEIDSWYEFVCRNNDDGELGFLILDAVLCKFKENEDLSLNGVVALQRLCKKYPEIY

RPA-DBD-A-Cy5;Rtt105 = RPA-DBD-A-Cy5;Rtt105 (Saccharomyces cerevisiae;Saccharomyces …, UniProt P22336;P26754;P26755;P40063 1-621;1-273;1-122;1-208, |); assay: stopped-flow FRET; with Rtt105; kobs1 15, kobs2 1.9 s-1; EMSA: 25 mM Tris-Cl pH 7.5, 200 mM NaCl, 5 mM MgCl2, 5% glycerol, 0.05% Tween-20, 25 C; anisotropy/FRET: 30 mM HEPES pH 7.8, 100 mM KCl, 6% glycerol, 5 mM MgCl2, 1 mM bME, 23 C (stopped flow 25 C); settings: protein: recombinant;recombinant; tags: Cy5 on DBD-A via 4AZP;; copies: 1;1;1;1; label: 5'-Cy3
Chain of RPA-DBD-A-Cy5;Rtt105 (P26754 whole entry, chain 2 of 2): as the sequence (P26754 whole entry, chain 2 of 2) above
Chain of RPA-DBD-A-Cy5;Rtt105 (P26755 whole entry, chain 3 of 2): as the sequence (P26755 whole entry, chain 3 of 2) above

RPA-DBD-D-Cy5 = RPA-DBD-D-Cy5 (Saccharomyces cerevisiae, UniProt P22336;P26754;P26755 1-621;1-273;1-122); assay: stopped-flow FRET; no Rtt105; kobs1 100.3, kobs2 16, kobs3 1.4 s-1; EMSA: 25 mM Tris-Cl pH 7.5, 200 mM NaCl, 5 mM MgCl2, 5% glycerol, 0.05% Tween-20, 25 C; anisotropy/FRET: 30 mM HEPES pH 7.8, 100 mM KCl, 6% glycerol, 5 mM MgCl2, 1 mM bME, 23 C (stopped flow 25 C); settings: protein: recombinant; tags: Cy5 on DBD-D via 4AZP; copies: 1;1;1; label: 3'-Cy3
Chain of RPA-DBD-D-Cy5 (P26754 whole entry, chain 2 of 2): as the sequence (P26754 whole entry, chain 2 of 2) above
Chain of RPA-DBD-D-Cy5 (P26755 whole entry, chain 3 of 2): as the sequence (P26755 whole entry, chain 3 of 2) above

RPA-DBD-D-Cy5;Rtt105 = RPA-DBD-D-Cy5;Rtt105 (Saccharomyces cerevisiae;Saccharomyces …, UniProt P22336;P26754;P26755;P40063 1-621;1-273;1-122;1-208, |); assay: stopped-flow FRET; with Rtt105; kobs1 0.5, kobs2 48, kobs3 3.6 s-1; EMSA: 25 mM Tris-Cl pH 7.5, 200 mM NaCl, 5 mM MgCl2, 5% glycerol, 0.05% Tween-20, 25 C; anisotropy/FRET: 30 mM HEPES pH 7.8, 100 mM KCl, 6% glycerol, 5 mM MgCl2, 1 mM bME, 23 C (stopped flow 25 C); settings: protein: recombinant;recombinant; tags: Cy5 on DBD-D via 4AZP;; copies: 1;1;1;1; label: 3'-Cy3
Chain of RPA-DBD-D-Cy5;Rtt105 (P26754 whole entry, chain 2 of 2): as the sequence (P26754 whole entry, chain 2 of 2) above
Chain of RPA-DBD-D-Cy5;Rtt105 (P26755 whole entry, chain 3 of 2): as the sequence (P26755 whole entry, chain 3 of 2) above

[1] = target: B2; assay: other fluorescence titration; MB543 fluorescence quenching; 200 nM fluorescent RPA or F-A-B in the cuvette, unlabeled Rtt105 added stepwise; 23 °C; 30 mM HEPES pH 7.8, 100 mM KCl, 6% glycerol, 5 mM MgCl2, 1 mM βME; quadratic fit, apparent KD; settings: both partners purified
[2] = target: T1, Replication Protein A (RPA), S. cerevisiae heterotrimer of RPA70, RPA32 and RPA14 (S. cerevisiae, UniProt P22336 1-621; P26754 1-273; P26755 1-122); assay: cross-linking; BS3 (5 mM) cross-linking of RPA with Rtt105 in 30 mM HEPES, 200 mM KCl, pH 7.8; SDS-PAGE shift and mass spectrometry of cross-linked peptides (XL-MS); settings: both partners purified
T1 construct: RPA70 (Rfa1), large subunit of S. cerevisiae RPA; holds OB-F, DBD-A, DBD-B and DBD-C; RPA32 (Rfa2), middle subunit of S. cerevisiae RPA; holds DBD-D and the winged-helix domain; RPA14 (Rfa3), small subunit of S. cerevisiae RPA; holds OB-E; also called yeast RPA; unlabeled RPA; copies: + +
T1 sequence (P26754 whole entry, chain 2 of 2, the tested form may be a part): as the sequence (P26754 whole entry, chain 2 of 2) above
T1 sequence (P26755 whole entry, chain 3 of 2, the tested form may be a part): as the sequence (P26755 whole entry, chain 3 of 2) above

[3] = target: RPA-DBD-A^MB543 (S. cerevisiae) (UniProt P22336); assay: other fluorescence titration; MB543 fluorescence quenching; 200 nM fluorescent RPA or F-A-B in the cuvette, unlabeled Rtt105 added stepwise; 23 °C; 30 mM HEPES pH 7.8, 100 mM KCl, 6% glycerol, 5 mM MgCl2, 1 mM βME; quadratic fit, apparent KD
hRPA = hRPA (human, UniProt P27694;P15927;P35244 1-616;1-270;1-121); assay: fluorescence anisotropy; 20 nM DNA; stoichiometric; no RPAIN; EMSA: 25 mM Tris-Cl pH 7.5, 200 mM NaCl, 5 mM MgCl2, 5% glycerol, 0.05% Tween-20, 25 C; anisotropy/FRET: 30 mM HEPES pH 7.8, 100 mM KCl, 6% glycerol, 5 mM MgCl2, 1 mM bME, 23 C (stopped flow 25 C); settings: protein: recombinant; copies: 1;1;1; label: 5'-FAM
Chain of hRPA (P27694 whole entry, chain 1 of 3): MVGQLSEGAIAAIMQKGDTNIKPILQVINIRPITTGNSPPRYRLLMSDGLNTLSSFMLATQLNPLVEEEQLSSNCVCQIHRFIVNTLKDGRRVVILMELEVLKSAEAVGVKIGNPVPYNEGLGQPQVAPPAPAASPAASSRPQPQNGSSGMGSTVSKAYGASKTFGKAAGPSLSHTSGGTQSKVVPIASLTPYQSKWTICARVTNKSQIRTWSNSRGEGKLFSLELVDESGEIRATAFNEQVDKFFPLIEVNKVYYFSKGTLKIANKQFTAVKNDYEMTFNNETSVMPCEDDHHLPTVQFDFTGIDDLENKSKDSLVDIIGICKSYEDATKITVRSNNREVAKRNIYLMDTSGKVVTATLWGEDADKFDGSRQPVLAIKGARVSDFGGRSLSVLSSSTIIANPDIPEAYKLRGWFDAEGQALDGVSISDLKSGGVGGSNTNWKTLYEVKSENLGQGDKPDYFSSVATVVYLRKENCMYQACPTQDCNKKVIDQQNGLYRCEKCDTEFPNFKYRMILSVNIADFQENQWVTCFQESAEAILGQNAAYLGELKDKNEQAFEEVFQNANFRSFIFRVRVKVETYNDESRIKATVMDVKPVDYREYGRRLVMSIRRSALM
Chain of hRPA (P15927 whole entry, chain 2 of 3): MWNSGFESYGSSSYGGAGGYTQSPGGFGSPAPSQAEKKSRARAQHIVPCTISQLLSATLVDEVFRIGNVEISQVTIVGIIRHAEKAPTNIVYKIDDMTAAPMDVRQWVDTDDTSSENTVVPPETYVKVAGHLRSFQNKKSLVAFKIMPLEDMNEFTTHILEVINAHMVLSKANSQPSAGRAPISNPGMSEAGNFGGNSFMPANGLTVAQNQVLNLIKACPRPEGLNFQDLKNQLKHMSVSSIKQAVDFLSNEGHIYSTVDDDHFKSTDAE
Chain of hRPA (P35244 whole entry, chain 3 of 3): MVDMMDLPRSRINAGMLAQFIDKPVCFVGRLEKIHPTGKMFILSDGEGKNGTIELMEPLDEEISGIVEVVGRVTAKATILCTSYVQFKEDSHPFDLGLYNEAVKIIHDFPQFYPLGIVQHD

hRPA;RPAIN = hRPA;RPAIN (human;human, UniProt P27694;P15927;P35244;Q86UA6 1-616;1-270;1-121;1-219, |); assay: fluorescence anisotropy; 20 nM DNA; stoichiometric; hRPA:RPAIN 1:2; EMSA: 25 mM Tris-Cl pH 7.5, 200 mM NaCl, 5 mM MgCl2, 5% glycerol, 0.05% Tween-20, 25 C; anisotropy/FRET: 30 mM HEPES pH 7.8, 100 mM KCl, 6% glycerol, 5 mM MgCl2, 1 mM bME, 23 C (stopped flow 25 C); settings: protein: recombinant;recombinant; tags: ;N-terminal SUMO tag removed; copies: 1;1;1;2; label: 5'-FAM
Chain of hRPA;RPAIN (P27694 whole entry, chain 1 of 4): as the sequence (P27694 whole entry, chain 1 of 3) above
Chain of hRPA;RPAIN (P15927 whole entry, chain 2 of 4): as the sequence (P15927 whole entry, chain 2 of 3) above
Chain of hRPA;RPAIN (P35244 whole entry, chain 3 of 4): as the sequence (P35244 whole entry, chain 3 of 3) above
Chain of hRPA;RPAIN (Q86UA6 whole entry, chain 4 of 4): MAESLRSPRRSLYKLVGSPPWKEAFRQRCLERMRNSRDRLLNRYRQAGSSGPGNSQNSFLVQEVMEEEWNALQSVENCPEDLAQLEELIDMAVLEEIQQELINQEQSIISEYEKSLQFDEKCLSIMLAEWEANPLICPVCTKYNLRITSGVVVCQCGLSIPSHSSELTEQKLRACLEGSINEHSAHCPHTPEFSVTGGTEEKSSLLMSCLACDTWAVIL

RPA (RPA70/RPA32/RPA14) [4] = target: T2, RPA (RPA70/RPA32/RPA14) (Saccharomyces cerevisiae, UniProt P22336;P26754;P26755 1-621;1-273;1-122); assay: competition; facilitated exchange: excess free RPA displaces prebound labeled RPA; EMSA: 25 mM Tris-Cl pH 7.5, 200 mM NaCl, 5 mM MgCl2, 5% glycerol, 0.05% Tween-20, 25 C; anisotropy/FRET: 30 mM HEPES pH 7.8, 100 mM KCl, 6% glycerol, 5 mM MgCl2, 1 mM bME, 23 C (stopped flow 25 C); settings: protein: recombinant; copies: 1;1;1
Target sequence in this assay (P26754 whole entry, chain 2 of 2): as the sequence (P26754 whole entry, chain 2 of 2) above
Target sequence in this assay (P26755 whole entry, chain 3 of 2): as the sequence (P26755 whole entry, chain 3 of 2) above

[5] = target: RPA-DBD-A^Cy3 (S. cerevisiae) (UniProt P22336); assay: FRET or BRET; stopped-flow FRET, Cy3 excited at 535 nm, Cy5 emission; 100 nM each of RPA^Cy3 and Rtt105^Cy5; 25 °C; RPA reaction buffer; no DNA
[6] = target: RPA-DBD-D^Cy3 (S. cerevisiae) (UniProt P22336); assay: as above
[7] = target: RPA-DBD-D^MB543 (S. cerevisiae) (UniProt P22336); assay: optical tweezers with confocal fluorescence (C-trap); Rtt105^Cy5-RPA premixed 1:1, incubated with stretched lambda ssDNA, then moved to a buffer channel; 30 mM HEPES pH 7.8, 100 mM KCl, 6% glycerol, 5 mM MgCl2
[8] = target: T1, Replication Protein A (RPA), S. …; assay: AUC; sedimentation velocity as a14; Rtt105^Cy5, RPA and Rad52 mixed in equimolar concentrations, no ssDNA; 280 nm and 650 nm; settings: both partners purified
[9] = target: RPA (RPA70/RPA32/RPA14);Rtt105 (Saccharomyces cerevisiae;Saccharomyces …, UniProt P22336;P26754;P26755;P40063 1-621;1-273;1-122;1-208, |); assay: EMSA; Rtt105 premixed 1:1; 5 mM MgCl2; stoichiometric, apparent Kd; EMSA: 25 mM Tris-Cl pH 7.5, 200 mM NaCl, 5 mM MgCl2, 5% glycerol, 0.05% Tween-20, 25 C; anisotropy/FRET: 30 mM HEPES pH 7.8, 100 mM KCl, 6% glycerol, 5 mM MgCl2, 1 mM bME, 23 C (stopped flow 25 C); settings: protein: recombinant;recombinant; tags: ;; copies: 1;1;1;1; label: 5'-Cy5
Chain of RPA (RPA70/RPA32/RPA14);Rtt105 (P22336 whole entry, chain 1 of 4, one chain of several): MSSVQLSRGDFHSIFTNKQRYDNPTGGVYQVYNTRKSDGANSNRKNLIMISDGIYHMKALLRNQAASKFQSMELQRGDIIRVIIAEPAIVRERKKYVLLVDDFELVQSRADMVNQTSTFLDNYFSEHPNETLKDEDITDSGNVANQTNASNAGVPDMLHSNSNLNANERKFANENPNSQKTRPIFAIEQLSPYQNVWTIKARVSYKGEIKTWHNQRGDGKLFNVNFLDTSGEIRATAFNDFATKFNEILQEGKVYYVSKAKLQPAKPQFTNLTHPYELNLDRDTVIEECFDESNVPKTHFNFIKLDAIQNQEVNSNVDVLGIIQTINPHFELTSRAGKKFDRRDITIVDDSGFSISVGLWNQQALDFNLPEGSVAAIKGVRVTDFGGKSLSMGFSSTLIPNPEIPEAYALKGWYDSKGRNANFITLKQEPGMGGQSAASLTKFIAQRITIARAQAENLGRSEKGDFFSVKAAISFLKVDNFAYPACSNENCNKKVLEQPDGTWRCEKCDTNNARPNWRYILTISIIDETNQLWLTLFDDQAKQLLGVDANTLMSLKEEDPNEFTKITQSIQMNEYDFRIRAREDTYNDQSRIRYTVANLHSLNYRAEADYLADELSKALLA
Chain of RPA (RPA70/RPA32/RPA14);Rtt105 (P26754 whole entry, chain 2 of 4, one chain of several): as the sequence (P26754 whole entry, chain 2 of 2) above
Chain of RPA (RPA70/RPA32/RPA14);Rtt105 (P26755 whole entry, chain 3 of 4, one chain of several): as the sequence (P26755 whole entry, chain 3 of 2) above

RPA (RPA70/RPA32/RPA14) [10] = target: T2, RPA (RPA70/RPA32/RPA14); assay: EMSA; no Rtt105; 5 mM MgCl2; stoichiometric, apparent Kd; EMSA: 25 mM Tris-Cl pH 7.5, 200 mM NaCl, 5 mM MgCl2, 5% glycerol, 0.05% Tween-20, 25 C; anisotropy/FRET: 30 mM HEPES pH 7.8, 100 mM KCl, 6% glycerol, 5 mM MgCl2, 1 mM bME, 23 C (stopped flow 25 C); settings: protein: recombinant; copies: 1;1;1; label: 5'-Cy5
Target sequence in this assay (P22336 whole entry, chain 1 of 3): as the sequence (P22336 whole entry, chain 1 of 4, one chain of several) above
Target sequence in this assay (P26754 whole entry, chain 2 of 3): as the sequence (P26754 whole entry, chain 2 of 2) above
Target sequence in this assay (P26755 whole entry, chain 3 of 3): as the sequence (P26755 whole entry, chain 3 of 2) above

Binder: TTTTTTTTTTTTTTTTTTTTTTTTTTTTTTTTTTTTTTTT (ssDNA) [5'-Cy3-(dT)40]
binding result (RPA-DBD-A-Cy5): binds
binding result (RPA-DBD-A-Cy5;Rtt105): binds

Binder: TTTTTTTTTTTTTTTTTTTTTTTTTTTTTTTTTTTTTTTT (ssDNA) [3'-Cy3-(dT)40]
binding result (RPA-DBD-D-Cy5): binds
binding result (RPA-DBD-D-Cy5;Rtt105): binds

Kd [1]: 33.9 nM
B1: F-A-B-DBD-A^MB543 (domain or fragment)
chain: MSSVQLSRGDFHSIFTNKQRYDNPTGGVYQVYNTRKSDGANSNRKNLIMISDGIYHMKALLRNQAASKFQSMELQRGDIIRVIIAEPAIVRERKKYVLLVDDFELVQSRADMVNQTSTFLDNYFSEHPNETLKDEDITDSGNVANQTNASNAGVPDMLHSNSNLNANERKFANENPNSQKTRPIFAIEQLSPYQNVWTIKARVSYKGEIKTWHNQRGDGKLFNVNFLDTSGEIRATAFNDFATKFNEILQEGKVYYVSKAKLQPAKPQFTNLTHPYELNLDRDTVIEECFDESNVPKTHFNFIKLDAIQNQEVNSNVDVLGIIQTINPHFELTSRAGKKFDRRDITIVDDSGFSISVGLWNQQALDFNLPEGSVAAIKGVRVTDFGGKSLSMGFSSTLIPNPEIPEAYALKGWYDSKGRNANFITL
modifications: 4-azidophenylalanine (4AZP) in DBD-A carrying the MB543 fluorophore; position not given

Binder: B2
binding result [2]: binds
Kd [3]: 61.1 nM

Binder: TTTTTTTTTTTTTTTTTTTTTTTTT (ssDNA) [5'-FAM-(dT)25]
binding result (hRPA): binds
binding result (hRPA;RPAIN): binds

B3: (dT)97 (ssDNA)
DNA: TTTTTTTTTTTTTTTTTTTTTTTTTTTTTTTTTTTTTTTTTTTTTTTTTTTTTTTTTTTTTTTTTTTTTTTTTTTTTTTTTTTTTTTTTTTTTTTTT
binding result (RPA (RPA70/RPA32/RPA14) [4]): binds

kobs (single-step model) [5]: 0.2 s⁻¹
kobs,1 (two-step model) [6]: 3.5 s⁻¹
kobs,2 (two-step model) [6]: 0.2 s⁻¹
t1/2 of dissociation from RPA on ssDNA [7]: 5 s
binding result [8]: binds
B4: Rtt105^Cy5 (Rtt105^C13S labeled with Cy5 on Cys-12) (natural protein, S. cerevisiae, UniProt P40063 1-208, looked up)
chain: MYSNHNLNSDDCSFDWNEEKAAELQRTGVSFDRSLTPQSLRTSTRRLSEENKQQSGTMHIDTSPSVVSDIISSRRDRSQDFFGPHSSSPIAPSERQRADQRSRLESMRLTRRRDKMTKVRGGLEKMEEMIMQGEHLREMQRLKQEAQKNALPSDMAEYMEWQNNEDLEDDELLAFIEKQETYKNELEHFLNNANKNVYENNSYPNSHT
modifications: Cy5 (maleimide chemistry) on Cys-12
notes: Rtt105, S. cerevisiae, single-Cys version; also called Cy5-labeled Rtt105; fluorescent Rtt105; source: E. coli, purified similar to the wild-type protein, labeled with Cy5-maleimide

Binder: TTTTTTTTTTTTTTTTTTTTTTTTTTTTTT (ssDNA) [5'-Cy5-(dT)30]
Kd [9]: 5.7 ± 1.2 nM
Kd (RPA (RPA70/RPA32/RPA14) [10]): 5 ± 0.7 nM
